Experimental data as given in PMC10609481, “Substrate DNA Promoting Binding of Mycobacterium tuberculosis MtrA by Facilitating Dimerization and Interpretation of Affinity by Minor Groove Width”.
Several values for one entry are separate records, joined by “and”; a condition that tells them apart may be missing. Identical values can stand only once.

B1: No-Binding fragment (dsDNA)
DNA 1: ACAGCGGGACGTTTTCGCGCTGCATC
DNA 2: GATGCAGCGCGAAAACGTCCCGCTGT
B2: Rv3859c fragment (dsDNA)
DNA 1: GTTACGTGATCGAATTGTGGTCCAGG
DNA 2: CCTGGACCACAATTCGATCACGTAAC
B3: artificial highest-contribution sequence (dsDNA)
DNA 1: GTTTTGTTATCGTTTTGTGATATGGA
DNA 2: TCCATATCACAAAACGATAACAAAAC
B4: Rv0309 fragment (dsDNA)
DNA 1: GCTTTGTCACCGCACAGTGACCCAGC
DNA 2: GCTGGGTCACTGTGCGGTGACAAAGC
B5: Rv2524c fragment (dsDNA)
DNA 1: GTTTTGTTATCAAATCGTTATGCTGG
DNA 2: CCAGCATAACGATTTGATAACAAAAC

What follows are molecules tested against T1, MtrA (Mycobacterium tuberculosis H37Rv) (UniProt P9WGM7) (assay: BLI). Settings: not given.
T1 sequence: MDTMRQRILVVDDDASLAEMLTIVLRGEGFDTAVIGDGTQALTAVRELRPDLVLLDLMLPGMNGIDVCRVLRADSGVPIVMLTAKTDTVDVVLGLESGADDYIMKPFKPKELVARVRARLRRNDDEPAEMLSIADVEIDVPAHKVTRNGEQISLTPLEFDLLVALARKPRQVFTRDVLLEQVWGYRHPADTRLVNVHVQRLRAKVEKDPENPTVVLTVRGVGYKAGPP

Q: How did the Kd turn out when Rv0320 fragment was run?
A: Its Kd is 0.142 µM.

Q: Rv0469 fragment was tested. Which Kd did it give?
A: Its Kd is 119 µM.

Q: How did the Kd turn out when Rv1918c fragment was run?
A: Its Kd is 0.079 µM.

Q: With Rv3246c fragment as the molecule, how does the Kd read?
A: The Kd was 9880 µM.

Q: With Rv3849 fragment as the molecule, how does the Kd read?
A: Its Kd is 9650 µM.

These molecules were tested against T2, MtrA (Mycobacterium tuberculosis H37Rv, UniProt P9WGM7 1-228) (assay: BLI). Settings: protein: recombinant; tags: His6 (pET28a, BamHI/XhoI; N-terminal, inferred from stop codon in reverse primer); chain copies: 2; blunt.
T2 sequence: T1 sequence

Q: Does B1 bind?
A: Result: no binding

Q: With B2 as the molecule, how does the Kd read?
A: The Kd was 13.3 µM and 11.1 µM.

Q: Which Kd does the source give for B3 here?
A: Its Kd is 0.248 µM.

Q: With B4 as the molecule, how does the Kd read?
A: Its Kd is 178 µM.

Q: Which Kd does the source give for B5 here?
A: Its Kd is 0.0462 µM and 0.0625 µM.
